The values below come from article PMC2213614 (The Journal of Cell Biology, 2008).

In the assay the target is T1, GST-[change] (aa 1–320) (S. cerevisiae, UniProt P33332 1-320).
T1 sequence: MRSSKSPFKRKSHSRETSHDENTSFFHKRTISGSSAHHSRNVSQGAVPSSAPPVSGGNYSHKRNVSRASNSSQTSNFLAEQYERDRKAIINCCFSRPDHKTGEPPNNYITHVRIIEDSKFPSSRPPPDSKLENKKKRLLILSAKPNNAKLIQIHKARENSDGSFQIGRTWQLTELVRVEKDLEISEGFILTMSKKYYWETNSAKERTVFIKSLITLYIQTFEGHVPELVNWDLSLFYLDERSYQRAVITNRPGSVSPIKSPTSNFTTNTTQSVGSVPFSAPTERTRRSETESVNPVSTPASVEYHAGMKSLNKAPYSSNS
The assay can be described thus: pull-down.

B1: Hisx6-Cdc42 (natural protein)
chain: not shown
For the molecule B1, the binding result was “binds”.
